Data: publication PMC10702427, “Effects of Dimerization on the Deacylase Activities of Human SIRT2” (Biochemistry, 2023)
Several values for one entry are separate records, joined by “and”; a condition that tells them apart may be missing. Identical values can stand only once. Like-named read-outs stand apart in the source and are kept apart here. Each block holds one molecule with its values, some of them ahead of it. Primed or numbered codes have the meaning given here. Where no end group is shown, it is not given here. The star is where a group is joined. Myristoyl = CCCCCCCCCCCCCC(=O)*; PEG4′ = PEG4 linker

B4: SIRT2^cat(Q142A/E340A) (domain or fragment, human)
chain: SGEADMDFLRNLFSQTLSLGSQKERLLDELTLEGVARYMQSERCRRVICLVGAGISTSAGIPDFRSPSTGLYDNLEKYHLPYPEAIFEISYFKKHPEPFFALAKELYPGAFKPTICHYFMRLLKDKGLLLRCYTQNIDTLERIAGLEQEDLVEAHGTFYTSHCVSASCRHEYPLSWMKEKIFSEVTPKCEDCQSLVKPDIVFFGESLPARFFSCMQSDFLKVDLLLVMGTSLQVQPFASLISKAPLSTPRLLINKEKAGQSDPFLGMIMGLGGGMDFDSKKAYRDVAWLGECDQGCLALAELLGWKKALEDLVRREHASIDAQS

Tests used:
[1] = molecular target: SIRT2 catalytic domain (SIRT2^cat), amino acids 34–356 (human) (UniProt Q8IXJ6); assay: cross-linking; Bis(NHS)-PEG5, 10 μM SIRT2^cat pre-equilibrated with SIRT2 inhibitors, 50 μL, 2% DMSO; SDS-PAGE, Coomassie bands quantified
[2] = molecular target: SIRT2 catalytic domain (SIRT2^cat), amino acids 34–356 (human) (UniProt Q8IXJ6); assay: cross-linking; 1 mM Bis(NHS)-PEG5, 10 μM SIRT2 protein, room temperature 1 h, PBS with 1 mM DTT, with or without 12 μM acylated H4K16 peptide, ADP-ribose or the 286-313 peptide; SDS-PAGE, Coomassie bands quantified
[3] = molecular target: SIRT2 catalytic domain (SIRT2^cat), amino acids 34–356 (human) (UniProt Q8IXJ6); assay: SEC; analytical SEC, Bio-Rad Enrich SEC 650 column, PBS with 1 mM DTT, 100 μL injected (SIRT2^cat 2-80 μM; full-length SIRT2 56 μM); Kd of dimer to monomers estimated from the peak concentrations at elution, averaged over all runs with two peaks
[4] = molecular target: SIRT2 catalytic domain (SIRT2^cat), amino acids 34–356 (human) (UniProt Q8IXJ6); assay: cross-linking; 1 mM Bis(NHS)-PEG5, 10 μM SIRT2 protein, room temperature 1 h, PBS with 1 mM DTT, with or without 12 μM acylated H4K16 peptide, ADP-ribose or the 286-313 peptide; SDS-PAGE, Coomassie bands quantified; remark: listed apart in the source
[5] = molecular target: T1, full-length SIRT2 (amino acids 1–389) (human), Q8IXJ6; assay: as above; conditions: remark: other sources report otherwise
T1 chain: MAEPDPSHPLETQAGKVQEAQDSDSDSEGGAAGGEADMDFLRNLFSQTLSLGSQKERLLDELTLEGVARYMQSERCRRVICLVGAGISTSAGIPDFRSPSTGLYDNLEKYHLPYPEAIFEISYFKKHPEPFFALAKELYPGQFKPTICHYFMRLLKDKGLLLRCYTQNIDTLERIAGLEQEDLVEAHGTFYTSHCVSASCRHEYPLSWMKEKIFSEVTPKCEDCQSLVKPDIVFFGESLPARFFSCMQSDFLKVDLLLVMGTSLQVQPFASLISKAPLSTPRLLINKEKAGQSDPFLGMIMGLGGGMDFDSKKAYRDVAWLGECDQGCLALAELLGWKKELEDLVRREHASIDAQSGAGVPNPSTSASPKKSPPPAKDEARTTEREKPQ

[6] = molecular target: T1, full-length SIRT2 (amino acids 1–389) …; assay: SEC; analytical SEC, Bio-Rad Enrich SEC 650 column, PBS with 1 mM DTT, 100 μL injected (SIRT2^cat 2-80 μM; full-length SIRT2 56 μM); Kd of dimer to monomers estimated from the peak concentrations at elution, averaged over all runs with two peaks; conditions: remark: other sources report otherwise
[7] = molecular target: T2, SIRT2 catalytic domain (SIRT2^cat), amino acids 34–356 (human, UniProt Q8IXJ6-1 34-356)
T2 chain: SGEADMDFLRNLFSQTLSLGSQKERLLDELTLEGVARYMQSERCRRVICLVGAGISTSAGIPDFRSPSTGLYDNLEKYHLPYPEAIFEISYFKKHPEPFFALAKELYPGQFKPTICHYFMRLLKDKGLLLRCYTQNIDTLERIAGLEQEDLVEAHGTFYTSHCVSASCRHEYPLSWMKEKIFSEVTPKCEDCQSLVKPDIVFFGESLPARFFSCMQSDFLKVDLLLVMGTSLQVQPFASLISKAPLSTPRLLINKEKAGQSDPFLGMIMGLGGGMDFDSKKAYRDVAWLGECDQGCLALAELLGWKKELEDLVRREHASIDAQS

[8] = molecular target: myristoyl-H4K16 peptide H4K16 peptide (Homo sapiens, UniProt P62805, myristoylated K16); assay: gel shift assay
SIRT2^cat(Q142A/E340A) = molecular target: B4; assay: cross-linking; 1 mM Bis(NHS)-PEG5, 10 μM SIRT2 protein, room temperature 1 h, PBS with 1 mM DTT, with or without 12 μM acylated H4K16 peptide, ADP-ribose or the 286-313 peptide; SDS-PAGE, Coomassie bands quantified; conditions: both partners purified
[9] = molecular target: the molecule itself; assay: cell-based or functional assay

B1: full-length SIRT2 (amino acids 1–389), Q8IXJ6-1 1-389 (enzyme)
chain: MAEPDPSHPLETQAGKVQEAQDSDSDSEGGAAGGEADMDFLRNLFSQTLSLGSQKERLLDELTLEGVARYMQSERCRRVICLVGAGISTSAGIPDFRSPSTGLYDNLEKYHLPYPEAIFEISYFKKHPEPFFALAKELYPGQFKPTICHYFMRLLKDKGLLLRCYTQNIDTLERIAGLEQEDLVEAHGTFYTSHCVSASCRHEYPLSWMKEKIFSEVTPKCEDCQSLVKPDIVFFGESLPARFFSCMQSDFLKVDLLLVMGTSLQVQPFASLISKAPLSTPRLLINKEKAGQSDPFLGMIMGLGGGMDFDSKKAYRDVAWLGECDQGCLALAELLGWKKELEDLVRREHASIDAQSGAGVPNPSTSASPKKSPPPAKDEARTTEREKPQ
percent of the protein oligomeric after cross-linking [5]: 50%
stoichiometry N [6]: 2

B3: myristoyl-H4K16 peptide (13mer) (peptide)
peptide: KGLGKGGAK(Myristoyl)RHRK
notes: also called myristoyl peptide; myristoylated peptide; source: synthetic peptide (New England Peptide)
binding result (SIRT2^cat(Q142A/E340A)): binds
Kd [7]: 1000 nM

Molecule: B4
fold decrease in de-4-oxononanoylase catalytic efficiency (kcat/Km) of the mutant against wild-type SIRT2^cat [9]: 4 fold
fold decrease in deacetylase catalytic efficiency (kcat/Km, acetyl-H4K16 peptide, 1 mM NAD+) of the mutant against wild-type SIRT2^cat [9]: 6 fold

The remaining lines, values ahead:

percent of the protein cross-linked as dimer, no inhibitor [1]: 49.9% and 50.6%
percent of the protein cross-linked as dimer, with 20 μM ascorbyl palmitate [1]: 32.1%
percent of the protein cross-linked as dimer, with 200 μM ascorbyl palmitate [1]: 31.8%
percent of the protein cross-linked as dimer [2]: 47.4%
Kd [3]: 121 nM
stoichiometry N [3]: 2
percent of the protein cross-linked as dimer [4]: 50.8%
percent of the protein cross-linked as trimer [4]: 6%
percent of the protein migrating as monomer after cross-linking [4]: 43.2%
Molecule: SIRT2 catalytic domain (SIRT2^cat), amino acids 34–356 (from UniProt Q8IXJ6-1 34-356) (domain or fragment)

Kd [7]: 2000 nM
Molecule: {FAM-PEG4′}-KGLGKGGAK(Myristoyl)RHRK-OH [FAM-myristoyl-H4K16 peptide]

Kd [8]: ~1500 nM
B2: SIRT2cat catalytic domain (protein)
chain: ERLLDELTLEGVARYMQSERCRRVICLVGAGISTSAGIPDFRSPSTGLYDNLEKYHLPYPEAIFEISYFKKHPEPFFALAKELYPGQFKPTICHYFMRLLKDKGLLLRCYTQNIDTLERIAGLEQEDLVEAHGTFYTSHCVSASCRHEYPLSWMKEKIFSEVTPKCEDCQSLVKPDIVFFGESLPARFFSCMQSDFLKVDLLLVMGTSLQVQPFASLISKAPLSTPRLLINKEKAGQSDPFLGMIMGLGGGMDFDSKKAYRDVAWLGECDQGCLALAELLGWKKELEDLVRREHASIDAQS
